Source: the nanobody polyreactivity screen of Harvey et al. (2022)

Test: yeast display, Sf9 membrane polyspecificity reagent, FACS + sequencing; frameworks hold sequencing errors
Summary of the method: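 Genes from sorted yeast were amplified by colony PCR, read by MiSeq 2 × 250 sequencing and filtered on CDR length. These cells carried a synthetic nanobody library in Saccharomyces cerevisiae BJ5465 and were sorted by FACS into low and high (top ~1%) gates on anti-HA and streptavidin fluorescence. Polyreactivity is labelled according to the gate of origin.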

| Sequence | polyreactivity (PSR sort gate) |
| --- | --- |
| KVQLVESGGGLVQAGGSLRLSCAASGIIFFPYAMAWYRQAPGKERELVASINISDSSTYYADSVKGRFTISRDNAKKTVYLQMNSLKPEDTAVYYGAADNRGDSWYWDGYWGQGTQVTVSS | low polyreactivity |
| KVQLVESGGGLVQAGGSLRLSCAASGLTFSVYAMGWYRQAPGKERELVAAITNSGGSTYYADSVKGRFTISRDNAKNTVYLQMNSLIPEDTAVYYCAARYSTYYSGPPGLHLDYYYWGQGTQVTVSS | low polyreactivity |
| KVQLVESGGGLVQAGGSLRLSCAASGRIFKYYAMGWYRQAPGKEMELVARISRSSGNTYYADSVKGRFTISRDNAKKTVYLQMNSLIPEDTAVYYCATVPHYNGFNYWGQGTQVTVSS | high polyreactivity |
| KVQLVESGGGLVQAGGSLRLSCAASGRIFLPYAMGWYRQAPGKEREFVAAITWGAGTTYYADSVKGRFTISRDNAKNTVYLQMNSLKPEDTAVYYCAAEYRVLSWTYGYWGQGTQVTVSS | high polyreactivity |
| KVQLVESGGGLVQAGGSLRLSCAASGSIFIGYAMGCYRQAPGKERELVAAISYRGGSTYYADSVKGRFTISRDNAKNTVYLQMNSLKPEDTAVYYCATVLPVQQTRLGYSSRYYYWGQGTQVTVSS | high polyreactivity |
| KVQLVESGGGLVQAGGSLRLSCAASGSTFAGNALGWYRKAPGKERELVAAIDSSTGSTYYADSVKGRFTISRDNAKNTVYLQMNSLKPEDTAVYYCNKTSLLVKLDYWGPGTQVTVSS | low polyreactivity |
| KVQLVESGGGLVQAGGSLRLSCAPSGRIFQPNVMGWYRQPPGKVRELAAAIRSVSSTYYADSVKGRFTISRDNAKNSVYLQMNSLKPEDTAVYYCAARLFLRGYTRGNYLGQGTQVTVSS | high polyreactivity |
| KVQLVESGGSLVQAGGSLRLSSAASGRIITGYAMGWYRQAPGKEWELVAAITGSCVSTYYADSVKGRFTISRDNSKNTVYLQMNSLKPEDTAVYYCAARRYYGYVHWGQGTQVTVSS | high polyreactivity |
| KVQLVESGRALVQAGGSLRLSCAASGSTFGNNAMGWNRPAPGKERELVATIDDTTVSTNYADSVKGRFTISRDNAKNTVYLQMTCLKPEDTAVYYCSADDVDGSPYDYWGQGTQGTVSS | low polyreactivity |
| KVQLVESGVGLDQAGGSHRLSCDASGYIFDDYAMGWYRKAPGKERELVAAISSSGTSTNYADSVKVRFTISRDNAKNTVYLQMNSLKPEDTAVYYCAARSAILKSGYLMDYWGLGTQVTVSS | low polyreactivity |
| KVQLVESVGGLVQAGGSLRLSCAASGSIFRGNAIGWYRQAPGKERQLVAAISNSSGTTYYADSVKGRFTISRDNAKNTVYLQMNSLKPEDTAVYYCATRYYRGYVRGTHHVGGYYYRGQGTQVTVSS | low polyreactivity |
| KVQLVQSGGGLVQAGGILRLSCAASGRIFSSYAMGWYSQAPGKERELVAVISQRGGSTSYADSVKGRFTISRDNAKNTVYLQMNSLKPEDTAVYYCARRPGKGNNYWGQGTQVTVSS | high polyreactivity |
| LVHLQESGGGMVQAGGSLRLSGAAIGYISWADYMGWYRQAPGKERELVAGIGYGSTTYYADSVKGRFTISRDNAKNTAYLQMNSLKPEDTGVYYCAVGLDRDTAYKYWGQGTQVTVSS | low polyreactivity |
| LVHLVESGGGLVQAGGSLRLSCAASGITFTGYAMGWYRQAPGKERELVAAITWSSGSTYYADSVKGRFTISRDNAKNTVYLQMNSLKPEDTAVYYCNAGYWYDGPDYIPEYDYWGQGTQVTVSS | low polyreactivity |
| LVQHQESGGGLVQAGGSLRLSCAASGTIFLRYYMGWYRQAPGKQREFVAAINIGATANYADSLKGRFTISRDNAKNTVYLQMKSLYPQDTAVYYCAVYYPIYRQHDYWGQGSQVTVSS | low polyreactivity |
| LVQHVESGGGIVQAGGSLRLICAASGFPYNYYAMGWYRQAPGTEREFVAAISSGGGSTYYAYSVKGRFTISRDNAKNTVYLQMNSLKPEDTSGYYCAADRYSHYGYWGQATQVTVSS | low polyreactivity |
| LVQHVESGGGLVKAGGSLRLICAASGRTFLRNAMGWYRQAPGKERELVATITRGGSTYYADSVKGRFTISRDNAKNTVYLEKTSLKPEDTAVYYCSKDFSGGFRRPDYGYWGQGPQVTVSS | low polyreactivity |
| LVQLEDSGGGLVQGGGSLRLSCAASGRIFSANAMGCYRQATGKERELVASISTGGGRTYYADSVKGRFTISRDNAKNTVYLQMISLKPEDTAVYYCNAILRPFRVRGTYGTYGYDYWGQGTQVTVSS | high polyreactivity |
| LVQLQECGGGLVQAGGSLRLSCAASGNIFDADIMGWYRQAPCKERELVASVTDGGSTNYADSVKGRFTISRDNAKNTVYLQMNSLKPEDTAVYYCEAIVYPDILTYFDYDYDYFYWGQGTQVTVGS | low polyreactivity |
| LVQLQESGGGLVQAGGSLRLSCAASGTISPGGYMGWYRQAPGKERELVASINVGGSTNYADSVKGRFTISRDNAKNTVYLQMNSLKQEDNAVYYCAVWGRNRLQLSYWGQGTQVTVSS | low polyreactivity |
| LVQLVESGGALVQAGGSLRLSCAASGLIFYDYAMGWYRQAPGNDRELVAAISKGGGSTYYADSVKGRFTISRDYAKNSVYLQMNSLNTEDTAVYYGAASTSHTTDTRYDYWGQGTQVTVSS | low polyreactivity |
| LVQLVESGGGLVQAGGSLRLSCAASGFSFTSYTMGWYRQAPWKERELVAGISTNGGTTYYADSVKGRFTISRDNAKNTVYLQMNSLKPEDTAVYYCNAKRKYGRFPKKYYYWGQGTQVTVSS | high polyreactivity |

| Sequence | polyreactivity (PSR sort gate) |
| --- | --- |
| LVQLVESGGGLVQAGGSLRLSCAASGIIFRDNAMGWYRQAPGKERELVAAIDSSGGTTYADSVMGRFTISRDNAKNTVYLQMNSLKPEDTAVFYCATEVYWTVSYYGYDYYGGNYYYWGQGTQVTVSS | low polyreactivity |
| LVQLVESGGGLVQAGGSLRLSCAASGNIFVSYAMGWYRQAPGKERELVAAISKSGGSTYYADSVKGRFTISRDNAKNTVYLQMNSLKPEDTAVYDCAARWYNRVKYQKFNYWGQGTQVTVSS | high polyreactivity |
| LVQLVESGGGLVQAGGSLRLSSAASGLIFGYNAKGWYRQAPGKERELVAASSWSGGRTYYADSVKGRFTISRDNAKNTVYLHMNILKPEDTAVYYCAAVVRHSYFRDDHWGQGTQVTVSS | high polyreactivity |
| LVQLVQSGGGLVQAGGTLRISSAASGSTLDWYAMGWYRQAPGKERELVAAITSGGSTYYADSVKGRFTISRDNAKNTVYLQMNSLKPEDTAVYYCAAEYYTWYYDIYDYWGQGTQVTVSS | high polyreactivity |
| LVQVVESGGGLVQAGGSLRLSCAASGIFSRYARGWYRQAPGKERELVAAISNGGRTYYADSVKGRFTSARDNAKNTVYLQMNSLNPEDTAVYYCNKVRSPWYESWGQGTQVTVSS | high polyreactivity |
| PLQLVESGGGLGQAGGSLRLSCAASGSTFGHNAMGWYRPAPGKERELVAAISISGGRTYYADSVKGRFTISRDNAKNTVYLQMISRKPEDTAVYYCAAEVWYVGDNYDYWGQGTQVTLSS | high polyreactivity |
| PVQIVESGGGLVQAGGRLRLSCAASGSILVPYAMGWSRQAPGKERELVADISIRTGSTYYADSVKGRFTISRDNAKNTVYLQMYSLKPEETAVYYCNAAHRKPYTGLYYWGQGTQVTVSS | high polyreactivity |
| PVQLQESGGGLVQAGGSLRLSCAASGNIFDADIMGWYRQAPGKESELVACIADGGSTNYAESVKGRFTISRDNAKNTVYLQMNRLKPEDTAVYYCAAIAYPDIPTCFDYDSDYFFRGQGTQVTVSS | low polyreactivity |
| PVQLVESGGGLDQAGGSLRLTCAASGSIFYYNAKGWYRQSPGKERELVAAISSDGGTYYADSVKARFTISRDNAKKTVYLQMNSLKPEDTAVYYCAASQPSTYDYWGQGTQLTVSS | high polyreactivity |
| PVQLVESGGGLVHAGGSLRLSCAASGLTFRYYAMGLYRQAPGKERELVASISWSGASTYYADSVKGRFTISRDNAKNTVYLQMNSLKPEDTEVYYCNAGYYGSYDYWGQGTQVTVSS | high polyreactivity |
| PVQLVESGGGLVPGGGSLRLSCAASGRIFNAYARGWYRQAPGKERELVAAISSRGGSTYYADSVKGRCTISRDNAKNSVYLQKNSLPPEDTAVYYCAAGIYTATGYGYWGQGTQVTVSS | high polyreactivity |
| PVQLVESGGGLVQAGGSLRLSCAACGSIIAGYAMGWYRQAPGKERELVAAISWSGGGTYYADSVKGRFTISRDNAKNTVYLQMNSLKPEDTAVYYCNAYGYRHRGNGYWGQGTQVTVSS | high polyreactivity |
| PVQLVESGGGLVQAGGSLRLSCAASGFTFPNYAMGWYRQAPGKERELVAVITYSGGSTYYADTVKGRFTISRDNAKNTVYLQMNRLKPEDTAVYYCNARYPGSWYFGQYGGYDYGYWGQGTQVTVSS | low polyreactivity |
| PVQLVESGGGLVQAGGSLRLSCAASGFTFRPYAMGWYRPAPGTERELVAAITSGDSTNYADSVKGRFTISRDNAKKTVYLQMNSLKPEDTAVYYCAADSTGRPSVSYDYWGQGTQVTVSS | low polyreactivity |
| PVQLVESGGGLVQAGGSLRLSCAASGFTFTRYVMGWYRQAPGKERELVAAISGSGGSTNYADSVKGRFTISRDNAKNTVSLQMISLKPEDTAVYYCADRFVGSRYRFDYWGQGTQVTVSS | high polyreactivity |
| PVQLVESGGGLVQAGGSLRLSCAASGIIFVKYAMGWYRQAPGKERELVAAISTRGGSTYYADSVKGRFTISRDNAMNTVYLQMNSLKPEDTAVYYCAADATRKSQLPNTVPYDYWGQGTQVTVSS | high polyreactivity |
| PVQLVESGGGLVQAGGSLRLSCAASGSTFPYYDMGWYRPAPGKEREMVAAISASTGSTYYADSVKGRFTISRDKAKITVYLHMYSLKPEVTAVYYCAAAYYYWYTAYDYWGQGTQVTVSS | high polyreactivity |
| PVQLVESGGGLVQAGGSLRLSCAASGSTFVVYAMGWYRQAPGKERELVAAITSGVSTNYADSVKGRFTISRDNAKNTVYLQMNSLKPEDTAVYYCNKDVRPAYRWYDYWGQDTQVTVSS | low polyreactivity |
| PVQLVESGGVLVQAGCILRLSCAASGSTFYGYAMGWYRQAPGKERELVAANTSTVITDYADSVKGRFTISRDNAKNTFYFQMNSLKPEVPAVYDCNKERATSVTAEFRGDDAYWVQGTQVTVSS | low polyreactivity |
| QAELVESGGGLVQAGGSLRLSCAASGFTFTAYAMGWYRQAPGKERELVAAISYRGGRTNYAYSVKGRFTISRDNAKNTVYLQMNSLKPEDTAVYYCAARPRISTREMDYWGQGTQVTVSS | high polyreactivity |
| QAQLQESCGSLVQAGGGQRLSCAASGYISVGTVIGWYRQAPSKERELVASIDQGANTNYADSVKGRFTISRDNAKNNVYLKMNSLKPEDTAVYYCATESTYILNYWGQGTQVTVSS | low polyreactivity |
